B1: GS3445 (nucleic acid)
sense: GAAGACCAAGCUAGAGCGAGUACAAAAACAUCCCGCAACAUAUCAAUGUCAUCUUUGCCCCAAAAAAUUUACUCGCGCCUAUAAUCUUCGCUCCCAUCUCCGAACGCAUACAAACGAGCGACCUUUUAUCUGUUCCAAGUGCACAAAAGCUUUUGCGCGUCAGCAUGAUCGAAAACGACAUGAGAGCCUACAUUCAGGUGAAAAAAGAUUUAUUUGUAGAGGAGAACUUAAAAAUGGUGGUCAUUGGGGCUGUGGCCGUCCCUUUGCUCGUGCAGAUGCCUUAAAUCGACAUUUCCGAUCGGAAGCAGGCCGAGCUUGCAUAAAUCCACUCAUAGAGGAAGACGAAUCUGAAAAUCUACGGCUAUGGAAUGAGAAACAAAUUCAAAAUAUUAAACAAA
antisense: UUUGUUUAAUAUUUUGAAUUUGUUUCUCAUUCCAUAGCCGUAGAUUUUCAGAUUCGUCUUCCUCUAUGAGUGGAUUUAUGCAAGCUCGGCCUGCUUCCGAUCGGAAAUGUCGAUUUAAGGCAUCUGCACGAGCAAAGGGACGGCCACAGCCCCAAUGACCACCAUUUUUAAGUUCUCCUCUACAAAUAAAUCUUUUUUCACCUGAAUGUAGGCUCUCAUGUCGUUUUCGAUCAUGCUGACGCGCAAAAGCUUUUGUGCACUUGGAACAGAUAAAAGGUCGCUCGUUUGUAUGCGUUCGGAGAUGGGAGCGAAGAUUAUAGGCGCGAGUAAAUUUUUUGGGGCAAAGAUGACAUUGAUAUGUUGCGGGAUGUUUUUGUACUCGCUCUAGCUUGGUCUUC
B2: GS3362 (nucleic acid)
sense: UACCCGUCUGCAACAGGUACAGGUGGUUACGCAUCGCCAACAGGGACCAGUUACCCUACACCUACUGGAGGUUACUCUGAAGAGCCCUACCACUAUAAAGGUGUCAAGCUAGGUCAUUGAGAGGAUUGAGUUACGAAAUUUGAUUGCAGCCACGCCUUCGACUUCAACCGAGAAGAGUUCCAAUCUCCCUCUUAGACGCAGGACUACUCUCACGAUACUUCUGUCUCUACUUCUUCUCAUGAGCACGCUAAUACUCUCUAAGCCUCCGUUGAUGUGUUGAAAGACAGGCACCUCAGUUUUGAUUCUAUUCAGCUCGGCAAACAUGUUGUGUACAUUCAUAGACUGAAUUUCUUUUUUAUUAUUUUUUUCCAAAUACACUCUUCCUGGAAAAAGAAGCCCU
antisense: AGGGCUUCUUUUUCCAGGAAGAGUGUAUUUGGAAAAAAAUAAUAAAAAAGAAAUUCAGUCUAUGAAUGUACACAACAUGUUUGCCGAGCUGAAUAGAAUCAAAACUGAGGUGCCUGUCUUUCAACACAUCAACGGAGGCUUAGAGAGUAUUAGCGUGCUCAUGAGAAGAAGUAGAGACAGAAGUAUCGUGAGAGUAGUCCUGCGUCUAAGAGGGAGAUUGGAACUCUUCUCGGUUGAAGUCGAAGGCGUGGCUGCAAUCAAAUUUCGUAACUCAAUCCUCUCAAUGACCUAGCUUGACACCUUUAUAGUGGUAGGGCUCUUCAGAGUAACCUCCAGUAGGUGUAGGGUAACUGGUCCCUGUUGGCGAUGCGUAACCACCUGUACCUGUUGCAGACGGGUA
B3: GS1800: dsRNA trigger SEQ ID NO 137; gene target Protein BOB1 (nucleic acid)
DNA: ATCAGTCTGACTGCTATACTCACTACCAGAGTCACTGATTACCTGTCTGTCTCTATCGACAATTCCATGAGGTGATTTTAAATGAGTGATATGTTCGTCAATGACACTTAGAGTTTCATTCATTACAGGGCTATCTTGACGATGATTCTTAATATTAACAGACGAGATACTTTTTGATTGAATCGTTGTTTCAGGACTAGTAATCGTTAAGTTTGACGGAGCCTTGATACCCCGGGGCCCAAGAGTTGGTTGTATTTGAGGAGTATCTAACATTTTGAGAGGTTCTGATGGCAAGGAGACCGTATTTTCACCAGAAAAAGGAGTTTGTGGAGAAACTGTGTTGCTAGTTTTCCTTATTTTGGAATGGGAATTTTGAATGGACGATGATGCTGGCGAGCATATTAAAGATCCTCGGGGAGCTATACGTGTGTATACTTCTGGGAAGAGGCCACTCTTTCCATTTAGCAGATGACGGCCTAAAAACCATCCGTCCCCAAAATCATCATCACGTTCTATCAACTCAACGCGATCTCCTTTGGACAAGCTCAACTCATCTGAGCTACGAGCTGAGAAATCATGAACTACAAGCAAAATATGA
B4: GS3448 (nucleic acid)
sense: GAAGAUACAAAUUUAUGCGCUAUUCAUGCUAAACGUGUUACUAUAAUGCAAAAAGACAUUCAGCUUGCAAGGCGAAUCAGAGGGGUUUGGGGUGGUUUAGGCUAGCUUUUUUAUUCUAAAUAUACCAGUGCCCGAAUUUGAUCUCCCUAAGCCACACCAUCGAGUUGAAAUGAUGAGAGGAAGAUGACGAGAAUAAAAUUAUUGUGAAUAUUCGUUAUAUGGAUAAGCGUAGAGGGGAUCUAAUACUUGUGAAUUGGUAAUCUUGAGUUAUCACUUUUUCUGGCGCAUCCAGCGACCCUAAGCAUAUGGACACUAGUGAUUGCGUCUUAGGGUUAUAGUAGCCAAGAGGAAUUUGAAGCACACAUAUUAGCACAGCAUAAUAAUAAAUAA
antisense: UUAUUUAUUAUUAUGCUGUGCUAAUAUGUGUGCUUCAAAUUCCUCUUGGCUACUAUAACCCUAAGACGCAAUCACUAGUGUCCAUAUGCUUAGGGUCGCUGGAUGCGCCAGAAAAAGUGAUAACUCAAGAUUACCAAUUCACAAGUAUUAGAUCCCCUCUACGCUUAUCCAUAUAACGAAUAUUCACAAUAAUUUUAUUCUCGUCAUCUUCCUCUCAUCAUUUCAACUCGAUGGUGUGGCUUAGGGAGAUCAAAUUCGGGCACUGGUAUAUUUAGAAUAAAAAAGCUAGCCUAAACCACCCCAAACCCCUCUGAUUCGCCUUGCAAGCUGAAUGUCUUUUUGCAUUAUAGUAACACGUUUAGCAUGAAUAGCGCAUAAAUUUGUAUCUUC
B5: GS3454 (nucleic acid)
sense: GCUCUUCUCAAUGGAUCCCAAGAUGAUCUAAAUAGAAUCGCAGAACACUUUAAGUUGACAAAGUUGAAAGAGCUCUAUGAAAAACAAUGUCAAGUUUUAAAAAGAUUUGAUAGACCCAAUCCUUCUGUUCCAAUAGCCAUAGCACAUUUAUAUCCUCCAGGCCCUAUAAAUCCACAUUACUCAGCAGCUAUGGCACGAGAAGCUGAGAAAAAAAAUUCAAACCCUCUUAAAAACACUGCAACACAAACUAGUUCUAAGGAGGUUGGCUUAAGUACCAUUAGUAAUAAAAAUUCUCUUAUAAAUUCGAGGCGCUCAAAAGGACAAGAUAUGCCAACUCAGGCUAGCAGUUUGGCAGAAAAAUUUAGUCAAAGUAUGAUGGAUCAGGAGCUUGAUGAUGA
antisense: UCAUCAUCAAGCUCCUGAUCCAUCAUACUUUGACUAAAUUUUUCUGCCAAACUGCUAGCCUGAGUUGGCAUAUCUUGUCCUUUUGAGCGCCUCGAAUUUAUAAGAGAAUUUUUAUUACUAAUGGUACUUAAGCCAACCUCCUUAGAACUAGUUUGUGUUGCAGUGUUUUUAAGAGGGUUUGAAUUUUUUUUCUCAGCUUCUCGUGCCAUAGCUGCUGAGUAAUGUGGAUUUAUAGGGCCUGGAGGAUAUAAAUGUGCUAUGGCUAUUGGAACAGAAGGAUUGGGUCUAUCAAAUCUUUUUAAAACUUGACAUUGUUUUUCAUAGAGCUCUUUCAACUUUGUCAACUUAAAGUGUUCUGCGAUUCUAUUUAGAUCAUCUUGGGAUCCAUUGAGAAGAGC
B6: GS3447 (nucleic acid)
sense: CAACAGCUUGAAUUGCACGGAAUUAUCACUAUCAUCCCGACUAAGCCUCUCAAAAAGCAAAAUUUAUUUGCUAGCUCGGAAAAGAUAACAGCUAGCUACGCAAAAGCUAUUCAAGAUGGUUGUUGGCAUUCAUUUUCGCCAAACUCUCAGAAAAGCUGCAACAAAUCCCCGUCAUAUAGAAAACAACUCUAAUCAGCCAGAAACUAUGUUGUCCGGAGAAAAUAUUGGGUUACUUACGGGGCGAACAUCAAACGCCCGCAAAAGUGCGUGGCGACAAAUUUACGAUGUACUCGGAAGCAAACAUUAUUCAGCCGGAAAAGAUAGUGAUAGUAAAAUUGUACGAGCUAUAGCGCCAACUAUUCAGAUUACAAAAAUUACGUUAUACAGUAAUUAUGUC
antisense: GACAUAAUUACUGUAUAACGUAAUUUUUGUAAUCUGAAUAGUUGGCGCUAUAGCUCGUACAAUUUUACUAUCACUAUCUUUUCCGGCUGAAUAAUGUUUGCUUCCGAGUACAUCGUAAAUUUGUCGCCACGCACUUUUGCGGGCGUUUGAUGUUCGCCCCGUAAGUAACCCAAUAUUUUCUCCGGACAACAUAGUUUCUGGCUGAUUAGAGUUGUUUUCUAUAUGACGGGGAUUUGUUGCAGCUUUUCUGAGAGUUUGGCGAAAAUGAAUGCCAACAACCAUCUUGAAUAGCUUUUGCGUAGCUAGCUGUUAUCUUUUCCGAGCUAGCAAAUAAAUUUUGCUUUUUGAGAGGCUUAGUCGGGAUGAUAGUGAUAAUUCCGUGCAAUUCAAGCUGUUG
B7: GS3446 (nucleic acid)
sense: ACCCGCAGGUACUCUUAUGCUUGGAGCUGAAGGUAUUAAAGAUGCCAUAACUGGCUUCGAAGAUGCUCGUAAAGUAGAUUUAAAGAAUGAAAGAUUGCCUCCAAGUCUUGAGGAAAUUACACGAACAAGUGAAGAGGAUAGAGCUCUGGCAUUAGAGAGGGCUAAGGAAAGUGCGGAUAAUGAUCGAGGGCUUCAGAUUUUAUCUAGAAGACUCAGUUUAGUUGGCACUCAACCAAAUAGACCGCAACCGAGUAAAAUUCUGAACUCUGUUCUAGCCCUCGAUAAAGAUGUUUCUGAGAAAUAAGAGGUCGAUCAGAGUCACCUCCUGUUACAAGCUCAUUGGUUGGUCUGCAGGUACAGAAUUACUAAUCAUACCACGA
antisense: UCGUGGUAUGAUUAGUAAUUCUGUACCUGCAGACCAACCAAUGAGCUUGUAACAGGAGGUGACUCUGAUCGACCUCUUAUUUCUCAGAAACAUCUUUAUCGAGGGCUAGAACAGAGUUCAGAAUUUUACUCGGUUGCGGUCUAUUUGGUUGAGUGCCAACUAAACUGAGUCUUCUAGAUAAAAUCUGAAGCCCUCGAUCAUUAUCCGCACUUUCCUUAGCCCUCUCUAAUGCCAGAGCUCUAUCCUCUUCACUUGUUCGUGUAAUUUCCUCAAGACUUGGAGGCAAUCUUUCAUUCUUUAAAUCUACUUUACGAGCAUCUUCGAAGCCAGUUAUGGCAUCUUUAAUACCUUCAGCUCCAAGCAUAAGAGUACCUGCGGGU

The molecules below were run on E. necator (assay: Leaf disc assay, dry inoculum (settling tower), decrease in disease severity / hyphal growth (Example 2)). Conditions: decrease in disease severity (hyphal growth) relative to untreated control; time point 1 (untreated control hyphal growth ≥50%); value ± SE.

Molecule	% decrease =/− SE TP1 [%]
B1	14 ± 9
B2	14 ± 4
B3	22 ± 6
B4	19 ± 3
B5	4 ± 4
B6	35 ± 3
B7	36 ± 3

Same assay, conditions: decrease in disease severity (hyphal growth) relative to untreated control; time point 2; value ± SE

Molecule	% decrease =/− SE TP2 [%]
B1	16 ± 10
B3	25 ± 8
B5	0 ± 9

From patent US12077763B2, “RNA-based control of powdery mildew” (Greenlight Biosciences, Inc., priority 2021, dated 2024)
